In paper PMC4041426, “Structural basis for binding the TREX2 complex to nuclear pores, GAL1 localisation and mRNA export” (Nucleic Acids Research, 2014):

T1: Sac3^753–805:Sus1B:Cdc31 complex (S. cerevisiae, UniProt P46674 753-805; Q6WNK7 1-96; P06704 1-161)
T1 construct: Sac3, S. cerevisiae, residues 753–805 (BC); Sus1, S. cerevisiae (the Sus1B chain); Cdc31, S. cerevisiae; also called BC sub-complex; source: E. coli BL21 (DE3) CodonPlus RIL; cells with co-expressed Sac3:Cdc31 mixed with cells with Sus1; copies: 1 + 1 + 1
T1 sequence 1: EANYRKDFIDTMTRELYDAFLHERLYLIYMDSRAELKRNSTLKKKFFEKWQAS
T1 sequence 2: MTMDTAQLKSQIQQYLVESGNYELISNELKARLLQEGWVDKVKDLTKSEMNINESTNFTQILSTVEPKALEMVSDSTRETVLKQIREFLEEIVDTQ
T1 sequence 3: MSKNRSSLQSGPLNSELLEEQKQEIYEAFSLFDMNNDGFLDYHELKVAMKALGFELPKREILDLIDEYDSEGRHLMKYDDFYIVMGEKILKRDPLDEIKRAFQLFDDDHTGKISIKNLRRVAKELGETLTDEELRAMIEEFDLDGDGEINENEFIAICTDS

T2: Sus1 (S. cerevisiae, UniProt Q6WNK7 1-96)
T2 construct: Sus1, S. cerevisiae; also called Sus1A; Sus1B; source: E. coli BL21 (DE3) CodonPlus RIL; in clarified lysate (assembly pull-down), purified within Sac3 complexes (crystals)
T2 sequence: T1 sequence 2

T3: Kap95 (yeast, UniProt Q06142 1-861)
T3 construct: Kap95 (protein import karyopherin), yeast; also called karyopherin Kap95; yeast Kap95
T3 sequence (looked up): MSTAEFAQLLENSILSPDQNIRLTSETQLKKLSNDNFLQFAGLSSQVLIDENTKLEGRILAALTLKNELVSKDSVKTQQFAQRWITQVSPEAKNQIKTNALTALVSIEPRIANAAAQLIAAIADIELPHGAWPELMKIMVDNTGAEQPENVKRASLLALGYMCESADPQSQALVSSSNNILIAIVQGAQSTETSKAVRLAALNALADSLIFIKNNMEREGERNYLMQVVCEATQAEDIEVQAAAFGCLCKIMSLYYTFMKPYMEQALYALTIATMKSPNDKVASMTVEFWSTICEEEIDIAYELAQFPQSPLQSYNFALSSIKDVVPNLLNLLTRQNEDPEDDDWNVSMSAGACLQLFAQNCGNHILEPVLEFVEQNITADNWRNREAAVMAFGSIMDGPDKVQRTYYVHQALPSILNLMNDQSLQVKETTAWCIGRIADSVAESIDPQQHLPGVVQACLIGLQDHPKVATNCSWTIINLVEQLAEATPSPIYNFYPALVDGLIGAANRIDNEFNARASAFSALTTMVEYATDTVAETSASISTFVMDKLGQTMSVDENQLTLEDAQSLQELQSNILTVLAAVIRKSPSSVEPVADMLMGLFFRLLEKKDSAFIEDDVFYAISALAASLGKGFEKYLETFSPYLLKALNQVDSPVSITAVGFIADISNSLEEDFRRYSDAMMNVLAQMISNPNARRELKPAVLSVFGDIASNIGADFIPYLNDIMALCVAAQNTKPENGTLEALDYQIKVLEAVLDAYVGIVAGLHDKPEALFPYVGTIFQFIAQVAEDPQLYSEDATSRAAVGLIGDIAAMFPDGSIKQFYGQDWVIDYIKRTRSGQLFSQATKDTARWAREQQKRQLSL

T4: Cdc31 (S. cerevisiae, UniProt P06704 1-161)
T4 construct: Cdc31, S. cerevisiae; source: E. coli BL21 (DE3) CodonPlus RIL, co-expressed with Sac3 fragments; in clarified lysate (assembly pull-down), purified within Sac3 complexes (crystals)
T4 sequence: T1 sequence 3

B1: GST-Nup1^191–385 (domain or fragment, S. cerevisiae, UniProt P20676 191-385, looked up)
chain: KNRSNRKRFHSQSKGTVWSANFEYDLSEYDAIQKKDNKDKEGNAGGDQKTSENRNNIKSSISNGNLATGPNLTSEIEDLRADINSNRLSNPQKNLLLKGPASTVAKTAPIQESFVPNSERSGTPTLKKNIEPKKDKESIVLPTVGFDFIKDNETPSKKTSPKATSSAGAVFKSSVEMGKTDKSTKTAEAPTLSFN
notes: source: E. coli BL21 (DE3) CodonPlus RIL; immobilised on Glutathione Sepharose 4B from clarified lysate; not shown: GST, N-terminal, kept
B2: Sac3^757–787 (domain or fragment, S. cerevisiae, UniProt P46674 757-787, looked up)
chain: RKDFIDTMTRELYDAFLHERLYLIYMDSRAE
notes: source: E. coli BL21 (DE3) CodonPlus RIL, purified in complex with Sus1B
B3: Sac3^757–787:Sus1B (complex, S. cerevisiae)
chain 1: B2 chain
chain 2: T1 sequence 2
notes: Sus1, S. cerevisiae (the Sus1B chain); also called B sub-complex; Sac3:Sus1B; copies: 1 + 1
B4: Nup1^322–355 (domain or fragment, S. cerevisiae, UniProt P20676 322-355, looked up)
chain: PKKDKESIVLPTVGFDFIKDNETPSKKTSPKATS
notes: Residues 326–340 were built in the model; also called Nup1 fragment; source: E. coli BL21 (DE3) CodonPlus RIL, purified (Glutathione Sepharose, TEV release, Superdex75); not shown: GST, N-terminal, cleaved
B5: GST-Nup1^371–500 (domain or fragment, S. cerevisiae, UniProt P20676 371-500, looked up)
chain: DKSTKTAEAPTLSFNFSQKANKTKAVDNTVPSTTLFNFGGKSDTVTSASQPFKFGKTSEKSENHTESDAPPKSTAPIFSFGKQEENGDEGDDENEPKRKRRLPVSEDTNTKPLFDFGKTGDQKETKKGES
notes: as for B1
B6: Sac3^753–805 (domain or fragment, S. cerevisiae, UniProt P46674 753-805, looked up)
chain: T1 sequence 1
notes: Sac3, S. cerevisiae, residues 753–805 (BC); also called BC fragment; source: E. coli BL21 (DE3) CodonPlus RIL, purified in complex with Sus1B and Cdc31
B7: Nup1^316–340 (domain or fragment, S. cerevisiae, UniProt P20676 316-340, looked up)
chain: LKKNIEPKKDKESIVLPTVGFDFIK
notes: Nup1, S. cerevisiae, residues 316–340; Residues 330–340 were built in the model; also called Nup1 fragment; source: E. coli BL21 (DE3) CodonPlus RIL, purified (Glutathione Sepharose, TEV release, Superdex75); not shown: GST, N-terminal, cleaved

Key:
Conditions in all cases: both partners purified
[1] = biological target: T1, Sac3^753–805:Sus1B:Cdc31 complex; test: pull-down; GST-Nup fusion (or GST) immobilised on Glutathione Sepharose 4B from clarified bacterial lysate and washed with PBS-DTT; purified Sac3^CID complex, sub-complex, mutant variant or Kap95 added at 15.4 μM; 4°C, 1 h; SDS-PAGE and Coomassie staining
[2] = biological target: T2, Sus1; test: crystal structure; Nup1^322–355 mixed 6:1 with Sac3^757–787:Sus1B (15 mg/ml); 2.2–2.35 M ammonium sulphate, 100 mM Na citrate pH 5.6; P3_(2)21, 3.0 Å
[3] = biological target: B1; test: pull-down; GST-Nup fusion (or GST) immobilised on Glutathione Sepharose 4B from clarified bacterial lysate and washed with PBS-DTT; purified Sac3^CID complex, sub-complex, mutant variant or Kap95 added at 15.4 μM; 4°C, 1 h; SDS-PAGE and Coomassie staining
[4] = biological target: B2; test: crystal structure; Nup1^322–355 mixed 6:1 with Sac3^757–787:Sus1B (15 mg/ml); 2.2–2.35 M ammonium sulphate, 100 mM Na citrate pH 5.6; P3_(2)21, 3.0 Å
[5] = biological target: B3; test: as above
[6] = biological target: T3, Kap95; test: pull-down; GST-Nup fusion (or GST) immobilised on Glutathione Sepharose 4B from clarified bacterial lysate and washed with PBS-DTT; purified Sac3^CID complex, sub-complex, mutant variant or Kap95 added at 15.4 μM; 4°C, 1 h; SDS-PAGE and Coomassie staining
[7] = biological target: T2, Sus1; test: crystal structure; Nup1^316–340 mixed 7:1 with Sac3^753–805:Sus1B:Cdc31 (14.6 mg/ml); 16% PEG600, 2% PEG 1K, 10% glycerol, 100 mM MES pH 6.0; P2_(1), 2.6 Å
[8] = biological target: T4, Cdc31; test: as above
[9] = biological target: T1, Sac3^753–805:Sus1B:Cdc31 complex; test: as above

Binder: B1
- binding result [1]: binds

Binder: B2
- binding result [2]: binds

Binder: B3
- binding result [3]: binds

Binder: B4
- binding result [4]: binds
- binding result [2]: binds
- binding result [5]: binds

Binder: B5
- binding result [6]: binds

Binder: B6
- binding result [7]: binds
- binding result [8]: binds

Binder: B7
- binding result [9]: binds
